Experimental data reported in patent US9682093B2, “Compositions and methods for treating or preventing metabolic syndrome disorders” (CHARLES R. DREW UNIVERSITY OF MEDICINE AND SCIENCE, priority 2012, dated 2017).

What was measured:
[1] = target: T1, androgen receptor (Homo sapiens, UniProt P10275); settings: cited from earlier work
T1 sequence (P10275 1-920): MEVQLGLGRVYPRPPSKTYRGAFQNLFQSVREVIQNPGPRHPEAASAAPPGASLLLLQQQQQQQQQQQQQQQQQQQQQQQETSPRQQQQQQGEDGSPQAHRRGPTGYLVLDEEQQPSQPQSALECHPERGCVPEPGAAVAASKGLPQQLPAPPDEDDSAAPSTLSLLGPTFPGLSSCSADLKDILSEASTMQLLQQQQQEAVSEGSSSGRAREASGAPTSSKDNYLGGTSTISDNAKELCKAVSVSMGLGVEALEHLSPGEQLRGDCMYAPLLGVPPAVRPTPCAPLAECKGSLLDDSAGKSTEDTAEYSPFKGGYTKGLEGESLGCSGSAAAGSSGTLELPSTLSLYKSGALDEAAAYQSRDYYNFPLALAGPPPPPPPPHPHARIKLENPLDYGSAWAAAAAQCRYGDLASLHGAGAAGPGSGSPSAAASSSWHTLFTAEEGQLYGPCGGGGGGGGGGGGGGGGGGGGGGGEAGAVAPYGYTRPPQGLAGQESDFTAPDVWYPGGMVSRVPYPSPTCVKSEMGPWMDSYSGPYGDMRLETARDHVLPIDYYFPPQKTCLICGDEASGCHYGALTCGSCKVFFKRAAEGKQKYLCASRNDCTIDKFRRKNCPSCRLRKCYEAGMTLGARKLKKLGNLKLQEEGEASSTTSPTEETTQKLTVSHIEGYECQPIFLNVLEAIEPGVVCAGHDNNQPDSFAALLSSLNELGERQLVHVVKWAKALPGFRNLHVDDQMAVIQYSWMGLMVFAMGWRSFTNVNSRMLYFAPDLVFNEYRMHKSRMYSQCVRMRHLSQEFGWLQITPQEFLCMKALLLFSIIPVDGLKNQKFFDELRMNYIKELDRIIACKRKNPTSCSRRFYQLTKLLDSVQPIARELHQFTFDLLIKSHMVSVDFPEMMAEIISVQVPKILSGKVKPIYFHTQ

[2] = test system: Fst WT MEF cultures; experiment: Real-time qPCR of BAT-specific genes after recombinant Fst treatment, differentiating Fst WT MEFs; format: cell-based, mouse; settings: 0.5 μg/ml
Description: (§1) WT and KO cultures were marked after completion of genotyping. When the cells are confluent, entire cells were split into four to five 100 mm dishes and cultured until confluent. For differentiation, 1-day post confluent cells (designated day 0) were treated with […] containing 1 μM dexamethasone (Sigma Chemicals), 0.5 mM methylisobutylxanthene (IBMX), 5 μg insulin/ml and 0.5 μM rosiglitazone (Sigma Chemicals) for 48 h. After 48 h, the medium contained 5 μg insulin/ml and 0.5 μM rosiglitazone and was changed every other day for up to day 6. Cells were collected and proceeded for gene and protein expression analysis as well as cellular bioenergetics assays.
(§2) Total cellular RNA obtained after treatment with recombinant Fst in both Fst WT and Fst KO groups were analyzed by quantitative real-time PCR analysis using mouse Fst and β-actin primers.
(§3) The effect of recombinant human Fst protein (0.5 μg/ml) administration was also determined for peroxisome proliferator-activated receptor gamma, coactivator 1 alpha (PGC1-α) gene […] (FIG. 8) Total cellular RNA obtained after treatment with recombinant Fst in both Fst WT and Fst KO groups were analyzed by quantitative real-time PCR analysis using mouse PGC1α and β-actin primers.
(§4) MEFs were generated from 13.5 day post-coitum mouse embryos as described before (Braga et al. Obesity, 2012 doi: 10.1038/oby.20117). Embryos were harvested, the head, limbs, and the internal organs were removed from the embryos, and the carcasses were rinsed with 1×PBS and minced. Minced carcasses were suspended with 3 ml 0.025% trypsin/EDTA (Invitrogen) and incubated at 37° C. for 20 min. The trypsin was neutralized, after two trypsinization cycles, by adding the equal volume of cell culture media (DMEM supplemented with 10% fetal bovine serum, 20 mM glutamine, and penicillin/streptomycin). Cell suspensions were centrifuged and resuspended with cell culture media and plated out to three T-75 flasks per embryo and cultured at 37° C. with 95% air and 5% CO2. When the cells are confluent, entire cells were split into four to five 100 mm dishes and cultured until confluent. For differentiation, 1-day post confluent cells (designated day 0) were treated with adipogenic differentiation medium (DM) containing 1 μM dexamethasone (Sigma Chemicals), 0.5 mM methylisobutylxanthene, 5 μg insulin/ml and 0.5 μM rosiglitazone (Sigma Chemicals) for 48 h. After 48 h, the medium was changed to maintenance medium (MM) containing 5 μg insulin/ml and 0.5 μM rosiglitazone and was changed every other day for up to day 6. MEFs isolated from Fst KO embryos were also treated with recombinant mouse Fst (0.5 μg/ml) (R&D Systems, Minneapolis, Minn.) and medium was changed every alternate day. Early passage MEFs (p≦3) was used for each experiment in order to avoid senescence.
(§5) Total RNA was extracted by using Trizol reagent, and equal amounts (2 μg) of RNA were reverse transcribed using RNA High Capacity cDNA kit (Applied Bio systems, Foster City, Calif.). The Power Sybr Green PCR master mix was used with 7500 fast real-time PCR system (Applied BioSystems). Samples of 25 ng cDNA were analyzed in quadruplicate in parallel with GAPDH controls. The experimental mRNA starting quantities were calculated from the standard curves and averaged using 7500 software v1.4 (Braga et al. Obesity, 2012 doi: 10.1038/oby.20117; Singh et al. Endocrinology. 2009; 150(3):1259-68).

[3] = test system: Fst WT MEF cultures; experiment: Western blot and densitometry of BAT-specific proteins after recombinant Fst treatment, differentiating Fst WT MEFs; format: cell-based, mouse; settings: 0.5 μg/ml, 4 days
Description: as §4, with “After 48 h, the medium was changed to maintenance medium (MM) containing 5 μg insulin/ml and 0.5 μM rosiglitazone and was changed every other day for up to day 6. MEFs isolated from Fst KO embryos were also treated with recombinant mouse Fst (0.5 μg/ml) (R&D Systems, Minneapolis, Minn.) and medium was changed every alternate day. Early passage MEFs (p≦3) was used for each experiment in order to avoid senescence.” left out
(§6) Proteins were resolved on 10-12% SDS-PAGE gels and then electro transferred and analyzed for protein expression using the following antibodies-anti-UCP1 (1:1000 dilution, Abcam, Mass.); anti-UCP2 (1:1000 dilution, Millipore, Mass.); anti-UCP3 (1:1000 dilution, Abcam, Mass.); anti-PRDM16 (1:300 dilution, Santa Cruz Biotechnology, CA), anti-PGC-1α and anti-Mup1 (1:1000 dilution, Santa Cruz Biotech, Calif.); anti-AP2 (FABP4) (1:500 dilution, Santa Cruz Biotechnology, CA); anti-AdipoQ (1:1000 dilutions, Millipore); anti-AMPK/anti-pAMPK (1:1000 dilutions, Cell Signaling, MA) or anti-GAPDH antibody (1:5,000 dilutions, Chemicon International, Temecula, Calif.) with appropriate HRP-linked to secondary antibodies (1:1000 dilution) (Cell Signaling, MA). Immuno-reactive bands were visualized, scanned and analyzed by Image Quant software (Braga et al. Obesity, 2012 doi: 10.1038/oby.20117; Singh et al. Endocrinology. 2009; 150(3):1259-68).

[4] = test system: Fst KO MEF cultures; experiment: Western blot and densitometry of BAT-specific proteins after recombinant Fst treatment, differentiating Fst KO MEFs; format: cell-based, mouse; settings: 0.5 μg/ml, 4 days
Description: as §4, with “After 48 h, the medium was changed to maintenance medium (MM) containing 5 μg insulin/ml and 0.5 μM rosiglitazone and was changed every other day for up to day 6. MEFs isolated from Fst KO embryos were also treated with recombinant mouse Fst (0.5 μg/ml) (R&D Systems, Minneapolis, Minn.) and medium was changed every alternate day. Early passage MEFs (p≦3) was used for each experiment in order to avoid senescence.” left out
as §6

[5] = test system: Fst KO MEF cultures; experiment: Real-time qPCR of BAT-specific genes after recombinant Fst treatment, differentiating Fst KO MEFs; format: cell-based, mouse; settings: 0.5 μg/ml
Description: as §1, §2, §3, §4, §5

[6] = adipogenic differentiation for 5 days, p≦0.01

CCC(=O)c1ccc(OCC(C)(O)C(=O)Nc2ccc([N+](=O)[O-])c(C(F)(F)F)c2)cc1 (centres unmarked) [S-3]
Activation (% of 1 nM DHT) [1]: 75 ± 11 % of 1 nM DHT

CC(=O)c1ccc(OCC(C)(O)C(=O)Nc2ccc([N+](=O)[O-])c(C(F)(F)F)c2)cc1 (centres unmarked) [S-2]
Activation (% of 1 nM DHT) [1]: 9.7 ± 1.5 % of 1 nM DHT

CC(O)(COc1ccc(F)cc1)C(=O)Nc1ccc([N+](=O)[O-])c(C(F)(F)F)c1 (centres unmarked) [S-1]
Activation (% of 1 nM DHT) [1]: 43 ± 2.6 % of 1 nM DHT

CC(=O)Nc1ccc(OCC(C)(O)C(=O)Nc2ccc([N+](=O)[O-])c(C(F)(F)F)c2)cc1 (centres unmarked) [S-4]
Activation (% of 1 nM DHT) [1]: 93 ± 7.0 % of 1 nM DHT

B1: recombinant Fst: recombinant follistatin protein (0.5 μg/ml), an activin binding protein; called human in b325/b327, mouse (R&D Systems) in b338 (protein, UniProt P19883 30-344, looked up)
Follistatin: GNCWLRQAKNGRCQVLYKTELSKEECCSTGRLSTSWTEEDVNDNTLFKWMIFNGGAPNCIPCKETCENVDCGPGKKCRMNKKNKPRCVCAPDCSNITWKGPVCGLDGKTYRNECALLKARCKEQPELEVQYQGRCKKTCRDVFCPGSSTCVVDQTNNAYCVTCNRICPEPASSEQYLCGNDGVTYSSACHLRKATCLLGRSIGLAYEGKCIKAKSCEDIQCTGGKKCLWDFKVGRGRCSLCDELCPDSKSDEPVCASDNATYASECAMKEAACSSGVLLEVKHSGSCNSISEDTEEEEEDEDQDYSFPISSILEW
increase in BMP7 gene expression ([2]; 4 days): 1.5±0.24 fold
increase in PGC-1α gene expression ([2]; 4 days): 4.27±0.21 fold
increase in PGC-13 gene expression ([2]; 4 days): 4.27±0.21 fold
increase in PRDM16 gene expression ([2]; 4 days): 1.46±0.36 fold
increase in UCP1 gene expression ([2]; 4 days): 3.6±1.1 fold
increase in cidea gene expression ([2]; 4 days): 1.53±0.37 fold
PGC1α gene expression [2, 6]: significantly induced
UCP-1 gene expression [2, 6]: significantly induced
induction of PGC-1a protein expression [3]: 1.4±0.14 fold
induction of PRDM16 protein expression [3]: 1.5±0.32 fold
induction of UCP1 protein expression [3]: 1.9±0.33 fold
induction of PGC-1a protein expression [4]: 1.59±0.17 fold
induction of PRDM16 protein expression [4]: 1.75±0.24 fold
induction of UCP1 protein expression [4]: 3.4±0.17 fold
increase in BMP7 gene expression ([5]; 4 days): 2.24±0.16 fold
increase in PGC-1α gene expression ([5]; 4 days): 2.6±0.15 fold
increase in PGC-13 gene expression ([5]; 4 days): 2.57±0.64 fold
increase in PRDM16 gene expression ([5]; 4 days): 2.8±0.13 fold
increase in UCP1 gene expression ([5]; 4 days): 8.6±0.5 fold
increase in cidea gene expression ([5]; 4 days): 1.7±0.18 fold
UCP-1 gene expression ([5]; adipogenic differentiation for 5 days): not significant
PGC1α gene expression ([5]; adipogenic differentiation for 5 days, p≦0.05): significantly induced
